experiment: yeast display, Sf9 membrane polyspecificity reagent, FACS + sequencing; frameworks hold sequencing errors
Summary of the method: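 Genes from sorted yeast were amplified by colony PCR, read by MiSeq 2 × 250 sequencing and filtered on CDR length. These cells carried a synthetic nanobody library in Saccharomyces cerevisiae BJ5465 and were sorted by FACS into low and high (top ~1%) gates on anti-HA and streptavidin fluorescence. Polyreactivity is labelled according to the gate of origin.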

| Sequence | polyreactivity (PSR sort gate) |
| --- | --- |
| QVQLVESGGGLVQAGGSLRLSCAASGITFVWNAMGWYRQAPGKVREFVAGITYRSGRTYYADSVKGRFTISRDNAKNTVYLQMNSLKPEETAGYYCATTPRYTTYNYWGQGTQVTVSS | high polyreactivity |
| QVQLVESGGGLVQAGGSLRLSCAASGITFVYNAMGWYRQAPGKERELVASITFGGGSTYYADSVKGRFTISRDNAKITVYLQMHSLKPEDTAVYYCAARLHVAFDYWGQGTQVTVSS | low polyreactivity |
| QVQLVESGGGLVQAGGSLRLSCAASGITFVYYAMGWYRPAPGKERELVAAISWNGGSTYYADSVKGRFTISRDNAKNTVYLQMNSLKPEDSAVYYCNADSDPWYGHFSYYYYDMGYWGQGTQVTVSS | low polyreactivity |
| QVQLVESGGGLVQAGGSLRLSCAASGITFWAYAMGWYRQAPGKERELVAAITSGGSTNYADSVKGRFTISRDNAKNTVYLQMNSLKPEDTAVYYCAKNYRYYVFYDGFDYWGQGTQVTVSS | low polyreactivity |
| QVQLVESGGGLVQAGGSLRLSCAASGITFWAYAMGWYRQAPGKERELVASISSGGSTYYADSVKGRFTISRDNAKNTVYLQMNSLKPEDTAVYYCAATTLRWYGDTFNYWGQGTQVTVSS | high polyreactivity |
| QVQLVESGGGLVQAGGSLRLSCAASGITFWGYVMGWYRQAPGKERELVAAISSSGGRTYYADSVKGRFTISRDNAKNTVYLQMNSLKPEDTAVYYCAAVAWQGTVQFGYWGQGTQVTVSS | high polyreactivity |
| QVQLVESGGGLVQAGGSLRLSCAASGITFWKYAMGWYRQAPGKERELVAAISGRGGSTYYADSVKGRFTISRDNAKNTVYLQMNSLKPEDTAVFYCAKFPGISGYNYWGQGTQVTVSS | high polyreactivity |
| QVQLVESGGGLVQAGGSLRLSCAASGITFWSNAMGWYRQAPGKERELVAAITSSGGSTYYADSVKGRFTISRDNAKNTVYLQMNSLKPEDTAVYYCAAPISRSAGWDSYDYWGQGTQVTVSS | low polyreactivity |
| QVQLVESGGGLVQAGGSLRLSCAASGITFWTYTMGWYRQAPGTERELVAAISKRGGSTYYADSVKGRFTISRDNAKNSVYLQMNSLKPEDTAVYYCAATYSYRFSSFDYWGQGTQVTVSS | high polyreactivity |
| QVQLVESGGGLVQAGGSLRLSCAASGITFWVYVKGWYRQAPGKEREFVADISSGAGTTYYADSVKGRFTISRDNAKNTVYLQMNSLKPEDTAVYYFAARRWWPQWYDYWGQGTQVTVSS | high polyreactivity |
| QVQLVESGGGLVQAGGSLRLSCAASGITFWYYAMGWYRQAPGKERELVAAISWDGGSTYYADSVKGRFTISRDNAKNTVYLQMNSLKPEDTAVYYCAAEQYLYTWARHRANFDYWGQGTQVTVSS | high polyreactivity |
| QVQLVESGGGLVQAGGSLRLSCAASGITFWYYAMGWYRQAPRKERELVAAISWDGGSTYYADSVKGRFTISRDNAKNTVYVQMNSLKPEDTAVYYCNAVRYLERKYDYWGQGTQVTVSS | high polyreactivity |
| QVQLVESGGGLVQAGGSLRLSCAASGITFYDNVMGWYIQAPGKERELVAAITSGGSTNYADSVKGRFTISRDNAKNTVYLQMNSLKPEDTAVYYCAAQPRVDYEFPYRYGYWGQGTQVTVSS | low polyreactivity |
| QVQLVESGGGLVQAGGSLRLSCAASGITFYDNVMGWYRQAPGKERELVAAITSGGSTNYADSVKGRFTISRDNAKNTVYLQMNSLKPEDTAVYYCAAEGISVTAAQSEWYDYWGQGTQVTVSS | low polyreactivity |
| QVQLVESGGGLVQAGGSLRLSCAASGITFYDYAMGWYRQAPGKERELVAAISFSGSRTYYADSVKGRFTISRDNAKNTVYLQMNSLKPEDTAVYYCAASPSTPNKYGSWGQGTQVTVSS | high polyreactivity |
| QVQLVESGGGLVQAGGSLRLSCAASGITFYEYAMGCYRQAPGKERELVATITSGGNTNYADSVKGRFTISRDNAKNTVYLQMNSLKPEDTAVYYCNKEWDGDGYTDDCDYDYWGQGTQVTVSS | low polyreactivity |
| QVQLVESGGGLVQAGGSLRLSCAASGITFYEYAMGWYRQAPGKERELVASISGSGGSTFYADSVKGRFTISRDNAKNTVYLQMNSLKPEDTAVYYCAAYKEPYYEEYGYWGQGTQVTVSS | low polyreactivity |
| QVQLVESGGGLVQAGGSLRLSCAASGITFYFNTMGWYRQAPGKERELVASIRNTGSTYADSVKGRFTISRDNAKNTVYLQMNSLKPEDTAVYYCAARRRKYYRGEYGYWGQGTQVTVSS | high polyreactivity |
| QVQLVESGGGLVQAGGSLRLSCAASGITFYFNTMGWYRQAPGKVRELVASISGGSSTYYADSVKGRFTISRDNAKNTVYLQMNSLKPEDTAVYYCNAQGALFRGWFDYDYWGQGTQVTVSS | low polyreactivity |
| QVQLVESGGGLVQAGGSLRLSCAASGITFYGNAMGLYRQAPGKERELVANTYYADSVKGRFTISRDNAKNTVYLQMNSLKPEDTAVYYCANRNARYRSLPPGYDYWGLGTQVTVSS | low polyreactivity |
| QVQLVESGGGLVQAGGSLRLSCAASGITFYGNDMGGYRQAPGKERELVAAISYSGGSTYYADSVKGRFTISRDNAKNTVYLQMNSLKPEDNAGYYCAVEGTKLYEYYWGQVTQVTVSS | low polyreactivity |

| Sequence | polyreactivity (PSR sort gate) |
| --- | --- |
| QVQLVESGGGLVQAGGSLRLSCAASGITFYGYAMGWYRQAPGKERELVATISSGGSTNYADSVKGRFTISRDNAKNTVYLQMNSLKPEDTAVYYCNAAPDVNRDYEGSGDYWGQGSQVTVSS | low polyreactivity |
| QVQLVESGGGLVQAGGSLRLSCAASGITFYKNTMGWYRQAPGKERELVAAISSSGDNTFYADSVKGRFTISRDNAKNTVYLQMNSLKPEDTAVYYCATYRVINTIRGYYYTYDYWGQGTQVTVSS | high polyreactivity |
| QVQLVESGGGLVQAGGSLRLSCAASGITFYPYAMGWYSQAPGKEWELVADITWSGGSTYYADSVKGRFTISRDNAKNTVYLQMNSLKPEDSAVYYCNRKSYRLRSKVRGQYLLGYDWGQGTQVTVSS | high polyreactivity |
| QVQLVESGGGLVQAGGSLRLSCAASGITFYPYTLGWYRQAPGKERELVASISTSGTNYADSVKGRFTISRDNAKNTVYLQMNSLKPEDTAVYYCAADIWSYYRSTHVDSWGQGTQVTVSS | low polyreactivity |
| QVQLVESGGGLVQAGGSLRLSCAASGITFYQYAMGWSRQAPGKERELVAAIRWSGSSTYYADSVKGRFTISRDNAKNTVYLQMNSLKPEDTAVYYCAAAPGGWPGEYWGQGTQVTVSS | low polyreactivity |
| QVQLVESGGGLVQAGGSLRLSCAASGITFYQYVMGRYRQAPGKERELVAAISTSGDSTYYADYVKGRFTISRDNAKNTVYLQINSLKTEDTAVYYCATYWSGHYYYWGQGTQVTVSS | high polyreactivity |
| QVQLVESGGGLVQAGGSLRLSCAASGITFYRNAMGWYRKAPGKERELLAAISWSGGRTYYADSVKGRFTISRDNAKNTVYLQMNSLKPEDTAVYYCAASSWSSYYRPKYYWGQGTQVTVSS | high polyreactivity |
| QVQLVESGGGLVQAGGSLRLSCAASGITFYRNARGWYRQAPGKERELVAAITSGTRTYYADSVKGRFTISRDNAKNTVYLQMNSLKPEDTAVYYCAKRGPYYNDDEYYCGQGTQVTVSS | low polyreactivity |
| QVQLVESGGGLVQAGGSLRLSCAASGITFYRYAMGWSRQAPGKERELVAAIRRAGSTYYADSVKGRFTISRDIAKNSVYLQMNSLKPEDTAVYYCNARYGIGMNYWGQGTHVTVSS | high polyreactivity |
| QVQLVESGGGLVQAGGSLRLSCAASGITFYRYAMGWYRQAPGKEREFVAAITWGSTYYADSVKGRFTISRDNAKNTVYLQMNSLTPEDTAVYYCNADWGGFWQHRELDSWGQGTQVTVSS | low polyreactivity |
| QVQLVESGGGLVQAGGSLRLSCAASGITFYRYAMGWYRQAPGKERELVAAISSRGGRTYYADSVKGRFTISRDNAKNTVYLQMNSLKPEDTAVYYCAKGGKVGSTLEYDYWGQGTQVTVSS | high polyreactivity |
| QVQLVESGGGLVQAGGSLRLSCAASGITFYRYAMGWYRQAPGKERELVAAISYRGGRTFYADSVKGRFTISRDNAKNTVYLQMNSLKPEDTAVYYCNARDYYEKMDYWGQGTQVTVSS | high polyreactivity |
| QVQLVESGGGLVQAGGSLRLSCAASGITFYRYAMGWYRQARGKERELVADITSSGGSTYYADSVKGRFTISRDNAKNTVYLQMNSLKPEDTAVYYFNAAYYFSRIVYPYDYWGQGTQVTVSS | high polyreactivity |
| QVQLVESGGGLVQAGGSLRLSCAASGITFYSNAMGWYRQAPGKERELVATITRGGSTYYADSVKGRFTISRDNAKNTVYLQMNSLKPEDTAVYYCAADYSYRGREYGYWGQGTQVTVSS | low polyreactivity |
| QVQLVESGGGLVQAGGSLRLSCAASGITFYSYAMGWYRQAPGKEREFVAAINWRGGNTYYADSVKGRFTISRDNAKNTVYLQMNSLKPEDTAFYYCARDGIYAYWVDPYDYWGQGTQVTVSS | high polyreactivity |
| QVQLVESGGGLVQAGGSLRLSCAASGITFYTYAMGWYRQAPGKERELVAAISTGGSTYYADSVKGRFTISRDNAKNTVYLQMNSLKPEDTAVYYCAARTFSYPRRAYYYWGQGTQVTVSS | high polyreactivity |
| QVQLVESGGGLVQAGGSLRLSCAASGITFYTYAMGWYRQAPGKERELVAAITWRGGRTSYADSVKGRFTISRDNAKNTVYLQMNSLKPEDTAVYYCAKEAHPPWTSQDVFRSYDYWGQGTQVTVSS | low polyreactivity |
| QVQLVESGGGLVQAGGSLRLSCAASGITFYVNAMGWYRQAPGKERELVAAISRSGGSTYYADSVKGRFTISRDNAKNTVYLQMNSLKPEDTAVYYCNKEDYGLYPYYVSVGYDYWGQGTQVTVSS | low polyreactivity |
| QVQLVESGGGLVQAGGSLRLSCAASGITFYVNTKGWYRQAPGKEREVVAAIDWTDGGTYYADSVKGRFTISRDNAKNTVYLQMNSLKPEDTAVYYCALDYYWDIIGLYGYLAYDLDYWGQGTQVTVSS | low polyreactivity |
| QVQLVESGGGLVQAGGSLRLSCAASGITFYVYAMGSYTQAPGKEREFVAAISTRDGTTYADSEKGRFTISRDNAKNPFYLEMNSLKPVDTAVDYCAAAYYYDGQQGDFDYWGQGTQVTVSS | low polyreactivity |
